According to patent US20240238433A1 (published 2024):

How the values were obtained:
Experiment in all cases: BLI
CEACAM5 N256A = CEACAM5 N256A (UniProt P06731)
CEACAM5 = CEACAM5 (UniProt P06731)
CEACAM6 = CEACAM6 (UniProt P40199)
CEACAM6 N256A = CEACAM6 N256A (UniProt P40199)
[1] = target: T1, In-house produced Avi-tagged N256A mutated CEACAM6 (UniProt P40199 35-320)
T1 chain: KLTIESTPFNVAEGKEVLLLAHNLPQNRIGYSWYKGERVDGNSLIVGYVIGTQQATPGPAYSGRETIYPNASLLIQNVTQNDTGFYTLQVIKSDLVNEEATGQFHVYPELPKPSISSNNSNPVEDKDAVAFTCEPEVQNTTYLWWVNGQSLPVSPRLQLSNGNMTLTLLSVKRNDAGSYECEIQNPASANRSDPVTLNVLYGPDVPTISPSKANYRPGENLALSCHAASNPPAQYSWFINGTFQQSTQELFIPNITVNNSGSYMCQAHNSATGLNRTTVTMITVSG

[2] = target: T2, In-house produced Avi-tagged CEACAM6 (UniProt P40199 35-320)
T2 chain: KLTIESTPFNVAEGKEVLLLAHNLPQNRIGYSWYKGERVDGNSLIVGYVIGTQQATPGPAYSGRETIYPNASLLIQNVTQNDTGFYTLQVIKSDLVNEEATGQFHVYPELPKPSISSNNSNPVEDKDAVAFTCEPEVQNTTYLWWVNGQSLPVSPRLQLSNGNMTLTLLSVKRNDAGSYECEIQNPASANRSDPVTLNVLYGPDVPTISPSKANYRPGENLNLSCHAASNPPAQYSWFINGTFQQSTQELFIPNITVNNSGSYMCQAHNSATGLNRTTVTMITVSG

[3] = target: T3, In-house produced Avi-tagged N256A mutated CEACAM5 (UniProt P06731 35-685)
T3 chain: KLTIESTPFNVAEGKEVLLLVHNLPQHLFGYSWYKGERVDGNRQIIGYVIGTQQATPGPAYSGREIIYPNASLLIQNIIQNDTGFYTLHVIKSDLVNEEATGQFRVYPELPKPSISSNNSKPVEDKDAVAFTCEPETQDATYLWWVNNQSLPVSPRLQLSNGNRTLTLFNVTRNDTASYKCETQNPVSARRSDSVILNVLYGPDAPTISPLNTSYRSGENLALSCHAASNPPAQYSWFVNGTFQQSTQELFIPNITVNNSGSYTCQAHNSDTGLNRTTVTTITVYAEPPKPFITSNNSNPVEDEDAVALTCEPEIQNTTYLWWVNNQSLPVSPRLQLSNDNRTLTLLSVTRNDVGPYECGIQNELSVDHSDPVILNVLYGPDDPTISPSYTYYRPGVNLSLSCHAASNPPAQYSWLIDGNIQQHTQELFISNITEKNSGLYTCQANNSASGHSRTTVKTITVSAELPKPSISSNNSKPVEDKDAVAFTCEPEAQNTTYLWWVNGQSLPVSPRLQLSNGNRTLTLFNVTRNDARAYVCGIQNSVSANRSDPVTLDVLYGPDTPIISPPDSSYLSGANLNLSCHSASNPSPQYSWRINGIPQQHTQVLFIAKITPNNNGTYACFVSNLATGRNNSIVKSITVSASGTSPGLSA

[4] = target: T4, In-house produced Avi-tagged CEACAM5 (UniProt P06731 35-685)
T4 chain: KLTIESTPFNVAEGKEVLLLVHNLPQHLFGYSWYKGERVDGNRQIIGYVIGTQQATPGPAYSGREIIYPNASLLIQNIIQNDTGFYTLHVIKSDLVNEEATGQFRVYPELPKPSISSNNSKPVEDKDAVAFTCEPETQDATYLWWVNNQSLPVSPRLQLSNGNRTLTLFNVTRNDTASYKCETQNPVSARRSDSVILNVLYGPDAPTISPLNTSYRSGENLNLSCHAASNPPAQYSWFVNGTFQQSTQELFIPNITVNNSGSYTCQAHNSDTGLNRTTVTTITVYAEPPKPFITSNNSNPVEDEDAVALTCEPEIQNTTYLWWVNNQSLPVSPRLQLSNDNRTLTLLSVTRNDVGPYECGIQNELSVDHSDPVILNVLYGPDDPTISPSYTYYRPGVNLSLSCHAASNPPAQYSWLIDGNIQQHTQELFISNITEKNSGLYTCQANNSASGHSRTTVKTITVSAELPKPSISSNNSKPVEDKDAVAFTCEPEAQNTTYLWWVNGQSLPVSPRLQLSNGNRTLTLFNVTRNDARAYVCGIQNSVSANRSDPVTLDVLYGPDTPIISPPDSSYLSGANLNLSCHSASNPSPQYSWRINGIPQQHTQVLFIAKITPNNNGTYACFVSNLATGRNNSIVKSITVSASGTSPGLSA

## Tusamitamab
CEACAM5 N256A
  Kd: 1.27 nM
CEACAM5
  Kd: 1.37 nM

## NEO-201
CEACAM5 N256A
  Kd: 0.401 nM
CEACAM6
  Kd: 0.126 nM
CEACAM5
  Kd: 0.321 nM
CEACAM6 N256A
  Kd: 0.217 nM

B1: AB1 antibody (antibody, V domains shown)
VH: QVQLVQSGAEVKKPGASVKVSCKASGNTFTSYVMHWVRQAPGQGLEWMGYINPYNDGTKYNEKFKGRVTMTRDTSTSTVYMELSSLRSEDTAVYYCARSTARATPYFYAMDYWGQGTLVTVSS
VL: DIVMTQSPDSLAVSLGERATINCKSSQSLLWSVNQNSYLSWYQLKPGQPPKLLLYGASIRESGVPDRFSGSGSGTDFTLTISSLQAEDVAVYYCQHNHGSFLPYTFGGGTKLEIKR
[1]
  Kd: 3180 nM
[2]
  Kd: 71.5 nM
[3]
  Kd: > 200 nM
[4]
  Kd: 63.8 nM

B2: EBC-123 (antibody, V domains shown)
VH: QVQLVQSGAEVKKPGASVKVSCKASGNTFTSYVMHWVRQAPGQGLEWMGYINPYNDGTKYNEKFKGRVTMTRDTSTSTVYMELSSLRSEDTAVYYCARSTARATPYFYAMDYWGQGTLVTVSS
VL: DIVMTQSPDSLAVSLGERATINCKSSQSLLWSVNQNSYLSWYQLKPGQPPKLLLYGASIRESGVPDRFSGSGSGTDFTLTISSLQAEDVAVYYCQHNHGSFLPYTFGGGTKLEIKR
[1]
  Kd: 1.61 nM
[2]
  Kd: 1.57 nM
[3]
  Kd: 0.555 nM
[4]
  Kd: 0.775 nM
